# B1: modified TCR ba2 (TCR)
# TCR alpha: NIQNPDPAVYQLRDSKSSDKSVCLFTDFDSQTNVSQSKDSDVYITDKTVLDMRSMDFKSNSAVAWSNKSDFACANAFNNSIIPEDTFFPSPESSCDVKLVEKSFETDTNLNFQNLSVIGFRILLLKVAGFNLLMTLRLWSS
# TCR beta: EDLKNVFPPEVAVFEPSEAEISHTQKATLVCLATGFYPDHVELSWWVNGKEVHSGVSTDPQPLKEQPALNDSRYCLSSRLRVSATFWQNPRNHFRCQVQFYGLSENDEWTQDRAKPVTQIVSAEAWGRADCGFTSESYQQGVLSATILYEILLGKATLYAVLVSALVLMAMVKRKDSRG
# B2: modified TCR ba4 (TCR)
# TCR alpha: B1 TCR alpha
# TCR beta: VSTDPQPLKEQPALNDSRYCLSSRLRVSATFWQNPRNHFRCQVQFYGLSENDEWTQDRAKPVTQIVSAEAWGRADCGFTSESYQQGVLSATILYEILLGKATLYAVLVSALVLMAMVKRKDSRG
# B3: modified TCR ba9 (TCR)
# TCR alpha: KSNSAVAWSNKSDFACANAFNNSIIPEDTFFPSPESSCDVKLVEKSFETDTNLNFQNLSVIGFRILLLKVAGFNLLMTLRLWSS
# TCR beta: B1 TCR beta
# Target: CD3E (human, UniProt P07766 23-207)
# Experiment: cell-based or functional assay
# Sequence of CD3E (P07766 23-207): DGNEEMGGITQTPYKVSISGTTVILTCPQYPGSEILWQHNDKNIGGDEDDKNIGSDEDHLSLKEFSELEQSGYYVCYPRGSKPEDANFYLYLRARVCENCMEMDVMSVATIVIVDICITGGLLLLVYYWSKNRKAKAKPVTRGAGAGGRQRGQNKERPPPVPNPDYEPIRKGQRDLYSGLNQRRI
row,"CD3E-positive proportion [%] (Avg, n = 2), CD3-stably expressing 293T cells",Binder
1,84.5,B1
2,10.2,B2
3,90.7,B3

# Target: CD3 subunits (CD3E, CD3G, CD3D, CD3Z) (human, UniProt P07766 23-207; P09693 23-182; P04234 22-171; P20963 22-164)
# Experiment: cell-based or functional assay
# Sequence of CD3 subunits (CD3E, CD3G, CD3D, CD3Z) (P07766 23-207, chain 1 of 4): as the sequence (P07766 23-207) above
# Sequence of CD3 subunits (CD3E, CD3G, CD3D, CD3Z) (P09693 23-182, chain 2 of 4): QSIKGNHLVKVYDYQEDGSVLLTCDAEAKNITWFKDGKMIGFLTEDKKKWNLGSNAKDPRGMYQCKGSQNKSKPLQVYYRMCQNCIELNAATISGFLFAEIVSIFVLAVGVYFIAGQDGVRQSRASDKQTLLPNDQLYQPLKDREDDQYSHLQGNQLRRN
# Sequence of CD3 subunits (CD3E, CD3G, CD3D, CD3Z) (P04234 22-171, chain 3 of 4): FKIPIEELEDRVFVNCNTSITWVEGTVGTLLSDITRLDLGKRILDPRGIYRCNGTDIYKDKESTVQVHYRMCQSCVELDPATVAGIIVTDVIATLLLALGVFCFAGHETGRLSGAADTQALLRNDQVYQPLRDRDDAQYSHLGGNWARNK
# Sequence of CD3 subunits (CD3E, CD3G, CD3D, CD3Z) (P20963 22-164, chain 4 of 4): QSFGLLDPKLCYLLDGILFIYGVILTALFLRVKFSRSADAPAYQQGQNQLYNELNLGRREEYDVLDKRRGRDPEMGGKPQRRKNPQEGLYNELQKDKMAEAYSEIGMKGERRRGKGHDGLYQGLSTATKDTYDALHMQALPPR
row,"expression of CD3 (CD3-positive proportion), cells differentiated from iPS-derived HPCs (FF-WJs524), Day 21 [%]",Binder
1,50.4,B1
2,38.3,B2
3,99.5,B3

# Reference: patent US20220062341A1 (KIRIN, published 2022)
